Consider two molecules from patent US20260125455A1.

Test [1] has as its target human C5b6 complex (human) (UniProt P01031). Briefly: ELISA, C5b6-coated wells, large-scale purified antibody.
Test [2] has the same target. Briefly: ELISA, C5b6-coated wells. (In general: In an ELISA, binding on a coated surface is turned into a signal by an enzyme label.)
Test [3] shares this target. Briefly: ELISA, C5b6-coated wells, purified antibody.

B1: C601HOKC4 HuG4K (antibody, human IgG4 S228P, kappa, V domains shown)
VH: QVQLVQSGAEVKKPGESLKISCKASGYAFSDYWINWVRQMPGKGLEWMGQIYPGDDDTNYNPSFQGQATLSADKSISTAYLQWSSLKASDTAMYYCAREGYYGYTYVEYFDVWGTGTTVTVSS
VL: QIVLTQSPATLSLSPGERATLSCRASSSVSYLHWYQQKPGQSPRLWIYDTSKRATGIPARFSGSGSGTDYTLTISSLEPEDFAVYYCQQWTSNPLTFGQGTKLEIKR
A word on the EC50: it is the concentration giving half of the maximal effect. Molecule B1 came in with an EC50 in test [1] of 0.11 nM.

B2: MoC601 HuG4K (chimeric C601 antibody) (antibody, human IgG4 S228P, kappa, V domains shown)
VH: QVQLQQSGAELVKPGASVKISCKASGYAFSDYWMNWVKQRPGKGLEWIGQIYPGDDDTNYNGKFKGKATLTADKSSSTAYMQLSSLTSEDSAVYFCAREGYYGYTYVEYFDVWGTGTTVTVSS
VL: QIVLTQSPAIMSVSPGEKVTLTCSASSSVSYMHWYQQKSGTSPKRWIYDTSKLASGVPARFSGSGSGTSYSLTISSMEAEDAATYYCQQWTSNPLTFGAGTKLELRR
As to B2, the EC50 in test [2] and in test [3] was 0.09 nM in each case.
